# According to patent US20150050306A1 (University of Washington, published 2015):
# B1: FFL_006 (designed binder)
# chain: GSFSDIRKDAEDRADKAFEAAKNKFDKIKAAIRKDWPSEERAKDLMKKARYEMEQARRAIRNIESEALSKINDLPITNDQKKLASNDIIKEMARLFKKLEALMADIEILVTQ
# notes: Purified on Ni++ resin; no tag is stated for this construct
# B2: FFL_005 (designed binder)
# chain: GSMSDIRKDLEERFDKLVEALKNKVDKMKAAFRKDQFHEERMKDWFKDLRKEVEQMRRAVRNYASEALSKINDLPITNDDKKLASNDVLKLVAEVWKKLEAILADVEAWFTQLEHHHHHH
# B3: FFL_002 (designed binder)
# chain: GSLSDVRKDVEKRIDKALEAFKNKMDKEKAAFRKDPPSEERRKDKKKEFREEREQVRKAIRNVLSEALSKINDLPITNDKKKLVSNDVIKKVAEMKKKVELEVADVEKKVTQGSW
# notes: as for B1
# B4: FFL_004 (designed binder)
# chain: GSMSDARKDLEERLDKLLEAAKNKMDKFKAAMRKRGQREERKKDWAKIVRDEFEQFRKAVRNFLSEALSKINDYPITNDDKKLTSNDTKKFAAEVEKKLEAFKADVEEAATQ
# notes: as for B1
# B5: FFL_001 (designed binder)
# chain: GSRSDMRKDAERRFDKFVEAAKNKFDKFKAALRKGDIKEERRKDMKKLARKEAEQARRAVRNRLSELLSKINDMPITNDQKKLMSNDVLKFAAEAEKKIEALAADAEDKFTQGSW
# notes: monomeric
# B6: FFL_007 (designed binder)
# chain: GSLSDIRKDAERRFDKLVEAVKNKLDKMKAALRKEGQQEERMKDLMKFMRKEVEQLRKAMRNFLSEALSKINDMPITNDDKKLISNDLKKYDAIAEKKLEAMKADVERMATQGSWLEHHHHHH
# Columns and labels:
# [1] = molecular target: T1, Mota Fab; experiment: SPR (Biacore 2000); koff/kon; scaffold coupled to chip, Motavizumab as analyte
# T1 construct: also called Motavizumab Fab; Fab portion of Motavizumab
# [2] = molecular target: T1, Mota Fab; experiment: SPR (Biacore 2000); scaffold coupled to chip, Motavizumab as analyte
# Experimental: All experiments were carried out on a Biacore 2000 (GE Healthcare) at 25° C. with HBSEP (0.01 M HEPES pH 7.4, 0.15 M NaCl, 3 mM EDTA and 0.005% (v/v) Surfactant P20) (GE Healthcare) as running buffer. […] Samples of different protein concentrations were injected in duplicates over this surface at a flow rate of 50-100 μl/min. If necessary, surface regeneration was performed with two 60 seconds injections of 3 M MgCl₂ at a flow rate of 10 μl/min. One flow cell contained anti-human IgG only and its interaction with the analyte was used as reference. Alternatively, another format was used where the epitope where amine-coupled to the sensor chip and Mota Fab was injected with identical flow rates as mentioned above.
# To test whether the functional site (mota epitope) was recreated with fidelity, binding affinities were assessed by Surface Plasmon Resonance (SPR) experiments (FIG. 6). […] (See Table 3) The scaffolds were coupled to the biacore chip and Motavizumab was used as analyte.
Binder,Kd [1] [nM],koff [2] [s⁻¹],kon [2] [M⁻¹ s⁻¹]
B1,0.652,,
B2,0.0703,0.000209,2.97e+06
B3,0.47,0.000734,1.56e+06
B4,0.795,0.000832,1.05e+06
B5,0.03,0.000119,3.99e+06
B6,0.0941,0.000136,1.45e+06
